According to patent US20250019680, “ENGINEERED CAS13 FOR ULTRASENSITIVE NUCLEIC ACID DETECTION” (William Marsh Rice University, published 2025):

Key:
[1] = molecular target: T1, RBD #6L LwaCas13a (ADAR1 126-202 in Loop 1) (Leptotrichia wadei / Homo sapiens); assay: cleavage_in_vitro; collateral cleavage of RNaseAlert
T1 chain: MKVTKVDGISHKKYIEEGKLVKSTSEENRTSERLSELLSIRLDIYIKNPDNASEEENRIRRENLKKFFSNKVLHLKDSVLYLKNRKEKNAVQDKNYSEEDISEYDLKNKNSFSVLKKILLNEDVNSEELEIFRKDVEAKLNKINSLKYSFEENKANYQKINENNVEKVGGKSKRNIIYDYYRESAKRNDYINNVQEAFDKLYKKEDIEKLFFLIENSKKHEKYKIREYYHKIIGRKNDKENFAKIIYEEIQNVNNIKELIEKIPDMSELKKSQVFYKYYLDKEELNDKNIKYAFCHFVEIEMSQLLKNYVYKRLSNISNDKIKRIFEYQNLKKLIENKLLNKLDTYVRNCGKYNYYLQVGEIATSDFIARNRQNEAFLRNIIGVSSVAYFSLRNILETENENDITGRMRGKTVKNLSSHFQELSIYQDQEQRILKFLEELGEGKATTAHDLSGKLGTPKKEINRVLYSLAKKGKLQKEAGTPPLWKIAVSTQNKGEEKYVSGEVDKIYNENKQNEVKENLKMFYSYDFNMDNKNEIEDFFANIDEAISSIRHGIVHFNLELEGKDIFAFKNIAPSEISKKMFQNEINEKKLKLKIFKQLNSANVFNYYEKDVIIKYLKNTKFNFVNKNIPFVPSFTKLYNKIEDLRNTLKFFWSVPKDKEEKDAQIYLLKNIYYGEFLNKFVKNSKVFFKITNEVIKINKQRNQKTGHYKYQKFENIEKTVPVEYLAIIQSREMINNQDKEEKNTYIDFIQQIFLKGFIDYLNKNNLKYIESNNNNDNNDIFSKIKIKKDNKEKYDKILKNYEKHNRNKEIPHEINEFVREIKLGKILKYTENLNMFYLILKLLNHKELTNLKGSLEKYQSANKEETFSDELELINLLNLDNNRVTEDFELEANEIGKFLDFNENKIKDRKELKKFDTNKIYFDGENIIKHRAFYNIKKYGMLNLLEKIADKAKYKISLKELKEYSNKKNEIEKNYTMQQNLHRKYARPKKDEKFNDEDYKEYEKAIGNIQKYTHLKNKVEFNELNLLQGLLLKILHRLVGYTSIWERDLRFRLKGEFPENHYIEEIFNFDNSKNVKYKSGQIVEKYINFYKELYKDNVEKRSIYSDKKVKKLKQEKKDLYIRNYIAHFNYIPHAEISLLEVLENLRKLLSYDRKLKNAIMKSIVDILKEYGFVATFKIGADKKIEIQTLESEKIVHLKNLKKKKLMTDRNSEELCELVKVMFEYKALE

RBD #3L LwaCas13a [2] = molecular target: T2, RBD #3L LwaCas13a (Leptotrichia wadei / Homo sapiens); assay: as above
[3] = molecular target: T3, RBD #2L LwaCas13a (hnRNP A1 1-104 in Loop 1) (Leptotrichia wadei / Homo sapiens); assay: as above
RBD #4L LwaCas13a [4] = molecular target: T4, RBD #4L LwaCas13a (Leptotrichia wadei / Homo sapiens); assay: as above
[5] = molecular target: T1, RBD #6L LwaCas13a (ADAR1 126-202 in …); assay: cleavage_in_vitro; collateral cleavage of RNaseAlert, 30 min; conditions: label: body 32P for EMSA
RBD #3L LwaCas13a [6] = molecular target: T2, RBD #3L LwaCas13a; assay: as above; conditions: label: body 32P for EMSA
[7] = molecular target: T3, RBD #2L LwaCas13a (hnRNP A1 1-104 in …); assay: as above; conditions: label: body 32P for EMSA
RBD #4L LwaCas13a [8] = molecular target: T4, RBD #4L LwaCas13a; assay: as above; conditions: label: body 32P for EMSA
[9] = molecular target: T5, RBD #1L LwaCas13a (ADAR1 708-801 in Loop 1) (Leptotrichia wadei / Homo sapiens); assay: as above; conditions: label: body 32P for EMSA
T5 chain: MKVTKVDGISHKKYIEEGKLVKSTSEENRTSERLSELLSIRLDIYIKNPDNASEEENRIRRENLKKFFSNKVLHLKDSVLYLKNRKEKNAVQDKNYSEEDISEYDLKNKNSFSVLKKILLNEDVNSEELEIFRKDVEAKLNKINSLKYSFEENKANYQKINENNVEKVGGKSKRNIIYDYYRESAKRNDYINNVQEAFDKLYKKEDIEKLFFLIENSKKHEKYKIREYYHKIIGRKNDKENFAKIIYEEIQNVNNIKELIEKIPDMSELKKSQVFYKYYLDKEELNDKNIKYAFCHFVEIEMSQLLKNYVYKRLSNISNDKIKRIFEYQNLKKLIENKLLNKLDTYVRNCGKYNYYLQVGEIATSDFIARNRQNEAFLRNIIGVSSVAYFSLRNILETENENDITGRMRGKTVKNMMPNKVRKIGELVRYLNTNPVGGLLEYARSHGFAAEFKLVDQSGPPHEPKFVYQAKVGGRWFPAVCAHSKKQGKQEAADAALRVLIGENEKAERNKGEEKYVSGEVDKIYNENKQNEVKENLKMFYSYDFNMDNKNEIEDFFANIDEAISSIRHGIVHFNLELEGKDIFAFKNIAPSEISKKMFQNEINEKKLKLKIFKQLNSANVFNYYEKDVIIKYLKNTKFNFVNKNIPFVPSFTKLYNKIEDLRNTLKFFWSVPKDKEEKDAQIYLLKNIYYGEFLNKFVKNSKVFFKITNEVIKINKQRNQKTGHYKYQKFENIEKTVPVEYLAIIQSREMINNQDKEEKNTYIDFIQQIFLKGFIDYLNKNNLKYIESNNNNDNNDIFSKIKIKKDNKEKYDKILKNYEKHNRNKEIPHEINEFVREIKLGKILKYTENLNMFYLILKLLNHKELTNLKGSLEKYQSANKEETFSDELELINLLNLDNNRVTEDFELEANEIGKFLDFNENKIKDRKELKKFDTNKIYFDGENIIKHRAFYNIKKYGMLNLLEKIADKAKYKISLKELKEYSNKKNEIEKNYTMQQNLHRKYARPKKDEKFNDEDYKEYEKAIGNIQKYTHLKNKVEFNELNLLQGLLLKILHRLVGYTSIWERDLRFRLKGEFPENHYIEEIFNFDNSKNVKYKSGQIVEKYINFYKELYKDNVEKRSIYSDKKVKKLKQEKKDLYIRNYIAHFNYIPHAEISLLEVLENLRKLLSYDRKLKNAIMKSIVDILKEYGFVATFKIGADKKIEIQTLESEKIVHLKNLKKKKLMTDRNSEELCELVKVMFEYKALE

dWT LwaCas13a [10] = molecular target: T6, dWT LwaCas13a (Leptotrichia wadei, R1046A/H1051A); assay: EMSA; crRNA complex; 5 mM MgCl2, 37 C; conditions: label: body 32P for EMSA
T6 chain: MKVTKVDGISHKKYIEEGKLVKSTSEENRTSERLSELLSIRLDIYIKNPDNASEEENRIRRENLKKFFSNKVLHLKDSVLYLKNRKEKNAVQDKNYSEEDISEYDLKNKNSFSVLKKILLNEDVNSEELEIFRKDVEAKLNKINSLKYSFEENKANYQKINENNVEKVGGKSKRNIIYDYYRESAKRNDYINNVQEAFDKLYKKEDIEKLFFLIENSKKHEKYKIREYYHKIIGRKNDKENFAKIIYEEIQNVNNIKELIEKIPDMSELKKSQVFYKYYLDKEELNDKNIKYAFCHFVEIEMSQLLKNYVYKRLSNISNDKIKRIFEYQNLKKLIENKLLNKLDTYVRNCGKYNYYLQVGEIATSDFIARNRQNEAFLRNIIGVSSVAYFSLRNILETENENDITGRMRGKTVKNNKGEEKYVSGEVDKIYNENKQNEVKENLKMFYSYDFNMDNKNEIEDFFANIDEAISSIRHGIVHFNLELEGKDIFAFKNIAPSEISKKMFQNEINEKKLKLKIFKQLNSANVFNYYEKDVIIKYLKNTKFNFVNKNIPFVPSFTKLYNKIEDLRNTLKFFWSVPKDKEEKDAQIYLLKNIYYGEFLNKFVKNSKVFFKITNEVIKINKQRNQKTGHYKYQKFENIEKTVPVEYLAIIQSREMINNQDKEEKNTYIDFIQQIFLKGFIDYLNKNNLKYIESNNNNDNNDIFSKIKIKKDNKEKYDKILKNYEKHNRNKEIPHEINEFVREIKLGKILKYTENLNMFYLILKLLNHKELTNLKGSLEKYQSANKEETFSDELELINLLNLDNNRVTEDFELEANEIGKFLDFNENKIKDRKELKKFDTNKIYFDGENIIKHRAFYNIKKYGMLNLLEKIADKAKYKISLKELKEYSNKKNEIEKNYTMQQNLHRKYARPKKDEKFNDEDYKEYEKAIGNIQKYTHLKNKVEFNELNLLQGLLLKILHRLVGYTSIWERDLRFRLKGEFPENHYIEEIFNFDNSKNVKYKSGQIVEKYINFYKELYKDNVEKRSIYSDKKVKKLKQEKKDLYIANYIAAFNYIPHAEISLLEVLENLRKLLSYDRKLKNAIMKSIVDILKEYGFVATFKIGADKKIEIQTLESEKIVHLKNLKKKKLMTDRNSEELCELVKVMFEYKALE

dWT LwaCas13a [11] = molecular target: T6, dWT LwaCas13a; assay: EMSA; crRNA complex; 50 mM Tris pH 8.0, 60 mM NaCl, 5 mM MgCl2, 37 C; conditions: label: body 32P

B1: cr3_ssRNA1_0 crRNA ; T3_ssRNA1 target (ssRNA ; ssRNA)
RNA 1: GACUACCCCAAAAACGAAGGGGACUAAAACUAGAUUGCUGUUCUACCAAGUAAUCCAU
RNA 2: GGCCAGUGAAUUCGAGCUCGGUACCCGGGGAUCCUCUAGAAAUAUGGAUUACUUGGUAGAACAGCAAUCUACUCGACCUGCAGGCAUGCAAGCUUGGCGUAAUCAUGGUCAUAGCUGUUUCCUGUGUUUAUCCGCUCACAAUUCCACACAACAUACGAGCCGGAAGCAUAAAG
binding signal [1]: 38 % higher than WT
binding signal (RBD #3L LwaCas13a [2]): 102 % higher than WT
binding signal [3]: 59 % higher than WT
binding signal (RBD #4L LwaCas13a [4]): 91 % higher than WT

B2: cr1_N crRNA ; T1_N target (105 nt) (ssRNA ; ssRNA)
RNA 1: GACUACCCCAAAAACGAAGGGGACUAAAACAAUCUGAGGGUCCACCAAACGUAAUGCG
RNA 2: GUCUGAUAAUGGACCCCAAAAUCAGCGAAAUGCACCCCGCAUUACGUUUGGUGGACCCUCAGAUUCAACUGGCAGUAACCAGAAUGGAGAACGCAGUGGGGCGCG
binding signal [5]: 174 % higher than WT
binding signal (RBD #3L LwaCas13a [6]): 468 % higher than WT
binding signal [7]: 216 % higher than WT
binding signal (RBD #4L LwaCas13a [8]): 518 % higher than WT
binding signal [9]: 59 % higher than WT
Kd (dWT LwaCas13a [10]): 16 nM

B3: cr1_N crRNA ; T26_N_2 target (36 nt) (ssRNA ; ssRNA)
RNA 1: B2 RNA 1
RNA 2: ACCCCGCAUUACGUUUGGUGGACCCUCAGAUUCAAC
Kd (dWT LwaCas13a [11]): 46 nM
